This is an account of results in article PMC5378893 (Scientific Reports, 2015).

Changes are numbered by the printed parent chain.

In test [1] the target is T1, extracellular domain (ECD) of human epidermal growth factor receptor 2 (HER2) (Homo sapiens, UniProt P04626).
T1 construct: human epidermal growth factor receptor 2 (HER2), extracellular domain; also called HER2/ECD
Kind of test: SPR; BIAcore T200; HER2/ECD immobilised on a CM5 chip by amine coupling to 1000 RU; IgG flowed in PBST (0.05% Tween 20) at 30 uL/min; regeneration 10 mM glycine pH 1.5; global fit to a 1:1 binding model. The settings on record: both partners purified.

Test [2] deals with T2, extracellular domain (ECD) of human epidermal growth factor receptor 2 (HER2) (Homo sapiens, UniProt P04626).
T2 construct: human epidermal growth factor receptor 2 (HER2), extracellular domain (domains I-IV); also called HER2/ECD
Kind of test: competition binding assay; competition of S90 scFvs with IgGs (six mouse IgGs, four positive control IgGs) for binding to HER2/ECD; procedure in the Supplemental Experimental Procedures.

B1: GH2-81 IgG (antibody, V domains shown)
VH: EVQLVESGGGLVQPGGSLRLSCAASGFTINDYGIHWVRQAPGKGLEWVAGIGPFGGYTSYADSVKGRFTISADTSKNTAYLQMNSLRAEDTAVYYCARFGVLFDGVMDYWGQGTLVTVSS
VL: DIQMTQSPSSLSASVGDRVTITCRASQDVNDGVAWYQQKPGKAPKLLISFTTGLYSGVPSRFSGSGSGTDFTLTISSLQPEDFATYYCQQYYNWPITFGQGTKVEIK
notes: source: HEK293-F, transient transfection, purified (Protein A, Superdex 200)
B1: in test [1], the dissociation constant (Kd) worked out at 13.4 nM, the koff worked out at 0.0131 s⁻¹ and the kon came out at 975000 M⁻¹ s⁻¹.

B2: GH2-87 IgG (antibody, V domains shown)
VH: B1 VH with N30S, D31S, Y57F, G100L, V101N, L102I, F103H, D104L, V106W
VL: B1 VL with D31N, G32S, S49F, F50G, T52R, G53Y, W94Y, I96L
notes: as for B1
In test [1], B2 had a Kd of 13.3 nM, a koff of 0.00525 s⁻¹ and a kon of 395000 M⁻¹ s⁻¹.

B3: GH2-91 IgG (antibody, V domains shown)
VH: B1 VH with D31N, Y32F, G50S, G55W, V101N, L102D, F103Y
VL: B1 VL with Q27H, N30G, D31W, F50W, T51P, G53Y, Y92F, N93S, W94Y
notes: as for B1
In test [1], B3 returned a Kd of 2.47 nM, a koff of 0.00679 s⁻¹ and a kon of 2.75e+06 M⁻¹ s⁻¹.

B4: Fab37 (positive control IgG) (antibody, V domains shown)
VH: EVQLVESGGGLVQPGGSLRLSCAASGFSIWWSWIHWVRQAPGKGLEWVASISPSSGWTSYADSVKGRFTISADTSKNTAYLQMNSLRAEDTAVYYCARWWSSAMDYWGQGTLVTVSS
VL: DIQMTQSPSSLSASVGDRVTITCRASQSVSSAVAWYQQKPGKAPKLLIYSASSLYSGVPSRFSGSRSGTDFTLTISSLQPEDFATYYCQQWWWWPSTFGQGTKVEIK
Take B4: the binding result in test [2] is given as “binds”.

B5: A21 (positive control IgG) (antibody, V domains shown)
VH: EVQLQQSGPEVVKTGASVKISCKASGYSFTGYFINWVKKNSGKSPEWIGHISSSYATSTYNQKFKNKAAFTVDTSSSTAFMQLNSLTSEDSAVYYCVRSGNYEEYAMDYWGQGTSVTVSS
VL: DIVLTQTPSSLPVSVGEKVTMTCKSSQTLLYSNNQKNYLAWYQQKPGQSPKLLISWAFTRKSGVPDRFTGSGSGTDFTLTIGSVKAEDLAVYYCQQYSNYPWTFGGGTRLEIK
notes: Positive control IgG; also called Antibody A21
B5: in test [2], the binding result was “binds”.
